Substitutions are numbered along the chain they refer to.
What was measured:
[1] = target: T1, FcγRIIIa extracellular domain with C-terminal His tag (human, UniProt P08637 17-208); assay: SPR (Biacore), antibody captured on antigen peptide chip, FcγR as analyte
T1 construct: extracellular domain; also called FcgRIIIa; CD16A
Excerpt: The expression vectors for the respective H chains were combined in a way that each of the alterations L234Y, G236W, S298A, S239D, A330L, and I332E is present in the same H chain as P329R or in the different H chain from P329R, and the expression vector GpL16-k0 for the L chain was combined with them. Antibodies of interest were expressed and prepared according to the method described in Reference Example 1. The prepared antibodies were used to assay the FcγRIIIa-binding activity. The result of assessment using P329R on the direction of FcγRIIIa recognition by L234Y, G236W, S298A, S239D, A330L, and I332E is summarized in Table 12.
Analysis of interaction between objective antibody and the FcγR was carried out using Biacore T100 (GE Healthcare). HBS-EP+ (GE Healthcare) was used as the running buffer, and the measurement temperature was set to 25° C. Chips produced by immobilizing the antigen peptide by the amine coupling method to a Series S Sencor Chip CM5 (GE Healthcare), or alternatively, chips produced by allowing preliminarily biotinylated antigen peptides to interact with and immobilize onto a Series S Sensor Chip SA (certified) (GE Healthcare) were used. Antibodies of interest were captured onto an antigen peptide-immobilized chip, and allowed to interact to each FcγR diluted with running buffer. To regenerate and repeatedly use the chip, the antibodies captured on the chip were washed off by reacting 10 mM glycine-HCl, pH 1.5.

[2] = target: T2, FcγRIIb extracellular domain with C-terminal His tag (human, UniProt P31994 43-217); assay: SPR (Biacore), antibody captured on chip, soluble FcgR as analyte; experiment 2
T2 construct: extracellular domain; also called FcgRIIb; 2b; not shown: His tag at the C terminus
T2 sequence (looked up): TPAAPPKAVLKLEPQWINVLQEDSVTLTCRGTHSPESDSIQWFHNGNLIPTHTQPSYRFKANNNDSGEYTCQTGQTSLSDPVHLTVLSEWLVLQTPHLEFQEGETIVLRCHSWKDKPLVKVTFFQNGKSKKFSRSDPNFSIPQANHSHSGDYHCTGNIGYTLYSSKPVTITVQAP

[3] = target: T3, FcγRIIa H type extracellular domain with C-terminal His tag (human, UniProt P12318 34-217); assay: as above
T3 construct: extracellular domain; also called FcgRIIa H; FcgRIIaH; not shown: His tag at the C terminus
T3 sequence (looked up): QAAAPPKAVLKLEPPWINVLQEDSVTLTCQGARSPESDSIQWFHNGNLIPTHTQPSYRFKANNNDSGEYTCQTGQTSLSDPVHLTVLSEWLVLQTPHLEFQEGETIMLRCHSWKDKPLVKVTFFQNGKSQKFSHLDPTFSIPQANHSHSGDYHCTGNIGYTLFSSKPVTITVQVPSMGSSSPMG

[4] = target: T4, FcγRIa extracellular domain with C-terminal His tag (human, UniProt P12314 16-292); assay: as above
T4 construct: extracellular domain; also called FcgRI; FcgRIa; not shown: His tag at the C terminus

[5] = target: T5, FcγRIIIa V type extracellular domain with C-terminal His tag (human, UniProt P08637 17-208); assay: as above
T5 construct: extracellular domain; also called FcgRIIIa V; FcgRIIIaV; not shown: His tag at the C terminus

[6] = target: T6, FcγRIIIa F type extracellular domain with C-terminal His tag (human, UniProt P08637 17-208); assay: as above
T6 construct: extracellular domain; also called FcgRIIIa F; FcgRIIIaF; not shown: His tag at the C terminus

[7] = target: T7, FcγRIIa R type extracellular domain with C-terminal His tag (human, UniProt P12318 34-217); assay: as above
T7 construct: extracellular domain; also called FcgRIIa R; FcgRIIaR; not shown: His tag at the C terminus
T7 sequence (looked up): T3 sequence (looked up) with H134R

T1 sequence (P08637 17-208): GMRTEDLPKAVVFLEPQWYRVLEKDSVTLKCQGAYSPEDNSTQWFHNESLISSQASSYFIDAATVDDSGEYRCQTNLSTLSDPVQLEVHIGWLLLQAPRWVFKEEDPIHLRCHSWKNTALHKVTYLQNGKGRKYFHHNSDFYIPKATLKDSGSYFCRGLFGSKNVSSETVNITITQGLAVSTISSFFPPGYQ
T6 sequence (P08637 17-208): as above
T5 sequence (P08637 17-208 F176V): as the sequence (P08637 17-208) above, with F160V counted along it
T4 sequence (P12314 16-292): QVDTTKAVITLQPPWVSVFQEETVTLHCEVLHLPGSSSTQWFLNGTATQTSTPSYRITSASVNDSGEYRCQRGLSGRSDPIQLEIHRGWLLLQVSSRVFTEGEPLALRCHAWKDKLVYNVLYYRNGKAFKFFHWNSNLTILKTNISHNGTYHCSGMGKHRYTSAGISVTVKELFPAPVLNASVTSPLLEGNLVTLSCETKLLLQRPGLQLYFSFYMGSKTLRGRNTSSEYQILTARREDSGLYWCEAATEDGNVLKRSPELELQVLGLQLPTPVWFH

B1: GpH7-A5/GpH7-HA5/GpL16-k0 (antibody, human IgG1, kappa)
heavy 1: not shown
heavy 2: QVQLVQSGAEVKKPGASVTVSCKASGYTFTDYEMHWIRQPPGEGLEWIGAIDPKTGDTAYSESFQDRVTLTADKSTSTAYMELSSLTSEDTAVYYCTRFYSYTYWGQGTLVTVSSASTKGPSVFPLAPSSKSTSGGTAALGCLVKDYFPEPVTVSWNSGALTSGVHTFPAVLQSSGLYSLSSVVTVPSSSLGTQTYICNVNHKPSNTKVDKKVEPKSCDKTHTCPPCPAPEYLGGPSVFLFPPKPKDTLMISRTPEVTCVVVDVSHEDPEVKFNWYVDGVEVHNAKTKPREEQYNSTYRVVSVLTVLHQDWLNGKEYKCKVSNKALRAPIEKTISKAKGQPREPQVYTLPPSRDELTKNQVSLTCLVKGFYPSDIAVEWESNGQPENNYKTTPPVLDSDGSFFLYSKLTVDKSRWQQGNVFSCSVMHEALHNHYTQESLSLSP
light: DIVMTQSPLSLPVTPGEPASISCQASESLVHSNRNTYLHWYLQKPGQSPQLLIYKVSNRFSGVPDRFSGSGSGTDFTLKISRVEAEDVGVYYCSQNTHVPPTFGQGTKVEIERTVAAPSVFIFPPSDEQLKSGTASVVCLLNNFYPREAKVQWKVDNALQSGNSQESVTEQDSKDSTYSLSSTLTLSKADYEKHKVYACEVTHQGLSSPVTKSFNRGEC
notes: Heterodimerized anti-glypican-3 IgG1 variant
[1]
  FcγRIIIa BINDING ACTIVITY (relative): 60 relative, GpH7-A5/GpH7-B3/GpL16-k0 = 100

B2: GpH7-A5/GpH7-HA15/GpL16-k0 (antibody, human IgG1, kappa)
heavy 1: not shown
heavy 2: B1 heavy 2 with Y232L, A328L
light: B1 light
notes: as for B1
[1]
  FcγRIIIa BINDING ACTIVITY (relative): 32 relative, GpH7-A5/GpH7-B3/GpL16-k0 = 100

B3: GpH7-A5/GpH7-HA6/GpL16-k0 (antibody, human IgG1, kappa)
heavy 1: not shown
heavy 2: B1 heavy 2 with Y232L, G234W
light: B1 light
notes: as for B1
[1]
  FcγRIIIa BINDING ACTIVITY (relative): 56 relative, GpH7-A5/GpH7-B3/GpL16-k0 = 100

B4: GpH7-A48/GpH7-B3-20-08L/GpL16-k0 (antibody, human IgG1, kappa)
heavy 1: B1 heavy 2 with Y232L, D354K, H433R, E437K
heavy 2: not shown
light: B1 light
notes: as for B1
[1]
  FcγRIIIa BINDING ACTIVITY (relative): 60 relative, GpH7-A5/GpH7-B3/GpL16-k0 = 100

B5: GpH7-A48/GpH7-B3-03-20W/GpL16-k0 (antibody, human IgG1, kappa)
heavy 1: B1 heavy 2 with Y232L, D354K, H433R, E437K
heavy 2: not shown
light: B1 light
notes: as for B1
[1]
  FcγRIIIa BINDING ACTIVITY (relative): 13 relative, GpH7-A5/GpH7-B3/GpL16-k0 = 100

B6: GpH7-A48/GpH7-B3-15-02A/GpL16-k0 (antibody, human IgG1, kappa)
heavy 1: B1 heavy 2 with Y232L, D354K, H433R, E437K
heavy 2: not shown
light: B1 light
notes: as for B1
[1]
  FcγRIIIa BINDING ACTIVITY (relative): 47 relative, GpH7-A5/GpH7-B3/GpL16-k0 = 100

B7: GpH7-A5/GpH7-HA18/GpL16-k0 (antibody, human IgG1, kappa)
heavy 1: not shown
heavy 2: B1 heavy 2 with Y232L, I330E
light: B1 light
notes: as for B1
[1]
  FcγRIIIa BINDING ACTIVITY (relative): 35 relative, GpH7-A5/GpH7-B3/GpL16-k0 = 100

B8: GpH7-A48/GpH7-B3-06-09D/GpL16-k0 (antibody, human IgG1, kappa)
heavy 1: B1 heavy 2 with Y232L, D354K, H433R, E437K
heavy 2: not shown
light: B1 light
notes: as for B1
[1]
  FcγRIIIa BINDING ACTIVITY (relative): 123 relative, GpH7-A5/GpH7-B3/GpL16-k0 = 100

B9: GpH7-A48/GpH7-B3-01-15Y/GpL16-k0 (antibody, human IgG1, kappa)
heavy 1: B1 heavy 2 with Y232L, D354K, H433R, E437K
heavy 2: not shown
light: B1 light
notes: as for B1
[1]
  FcγRIIIa BINDING ACTIVITY (relative): 11 relative, GpH7-A5/GpH7-B3/GpL16-k0 = 100

B10: GpH7-A48/GpH7-B3-22-10E/GpL16-k0 (antibody, human IgG1, kappa)
heavy 1: B1 heavy 2 with Y232L, D354K, H433R, E437K
heavy 2: not shown
light: B1 light
notes: as for B1
[1]
  FcγRIIIa BINDING ACTIVITY (relative): 189 relative, GpH7-A5/GpH7-B3/GpL16-k0 = 100

B11: GpH7-A5/GpH7-HA7/GpL16-k0 (antibody, human IgG1, kappa)
heavy 1: not shown
heavy 2: B1 heavy 2 with Y232L, S237D
light: B1 light
notes: as for B1
[1]
  FcγRIIIa BINDING ACTIVITY (relative): 3 relative, GpH7-A5/GpH7-B3/GpL16-k0 = 100

B12: GpH7-A5/GpH7-HA11/GpL16-k0 (antibody, human IgG1, kappa)
heavy 1: not shown
heavy 2: B1 heavy 2 with Y232L, S296A
light: B1 light
notes: as for B1
[1]
  FcγRIIIa BINDING ACTIVITY (relative): 84 relative, GpH7-A5/GpH7-B3/GpL16-k0 = 100

B13: H240-FA030/H240-FB001/L73-k0 (antibody, human IgG1, kappa)
heavy 1: QDQLVQSGAEVKKPGASVKVSCKASGFNIKDTYIQWVRQAPGQGLEWMGRIDPLRKQTKYREKFEGRVTITADTSTNTAYMELSSLRSEDTAVYYCVRSGREFDYWGQGTLVTVSSASTKGPSVFPLAPSSKSTSGGTAALGCLVKDYFPEPVTVSWNSGALTSGVHTFPAVLQSSGLYSLSSVVTVPSSSLGTKTYTCNVNHKPSNTKVDKKVEPKSCDKTHTCPPCPAPEYYWGPSVFLFPPKPKDTLMISRTPEVTCVVVDVSDEEPKVKFNWYVDGVEVHNAKTKPREEQYNATYRVVSVLTVLHQDWLNGKEYKCKVSNKALPAPIEKTISKAKGQPREPQVYTLPPSRKEMTKNQVSLTCLVKGFYPSDIAVEWESNGQPENNYKTTPPVLDSDGSFFLYSKLTVDKSRWQQGNVFSCSVMHEALHNRYTQKSLSLSP
heavy 2: QDQLVQSGAEVKKPGASVKVSCKASGFNIKDTYIQWVRQAPGQGLEWMGRIDPLRKQTKYREKFEGRVTITADTSTNTAYMELSSLRSEDTAVYYCVRSGREFDYWGQGTLVTVSSASTKGPSVFPLAPSSKSTSGGTAALGCLVKDYFPEPVTVSWNSGALTSGVHTFPAVLQSSGLYSLSSVVTVPSSSLGTQTYICNVNHKPSNTKVDKKVEPKSCDKTHTCPPCPAPELLGGPSVFLFPPKPKDTLMISRTPEVTCVVVDVSHEEPEVQFNWYVDGVEVHNAKTKPREEQYNSTYRVVSVLTVLHQDWLNGKEYKCKVSNDALPMPIEETISKAKGQPREPQVYTLPPSREEMTKNQVSLTCLVKGFYPSDIAVEWESNGQPENNYKTTPPVLDSDGSFFLYSKLTVDKSRWQQGNVFSCSVMHEALHNHYTQESLSLSP
light: DIQMTQSPSSLSASVGDRVTITCRASQDIHKYIAWYQQKPGQAPRLLIQYTSTLQPGVPSRFSGSGSGTDYTFTISSLQPEDIATYYCLQYEQLRTFGGGTKVEIKRTVAAPSVFIFPPSDEQLKSGTASVVCLLNNFYPREAKVQWKVDNALQSGNSQESVTEQDSKDSTYSLSSTLTLSKADYEKHKVYACEVTHQGLSSPVTKSFNRGEC
notes: Heterodimerized anti-EREG IgG1 antibody; A chain altered from H240-AK072, B chain altered from H240-BH076
[2]
  Kd: 3300 nM
[3]
  Kd: 120 nM
[4]
  Kd: 0.036 nM
[5]
  Kd: 1.7 nM
[6]
  Kd: 6.4 nM
[7]
  Kd: 440 nM

Reference: patent publication US20180155451A1 (published 2018)
